According to US20200087373A1 (UNIVERSITY OF COPENHAGEN, published 2020):
Where “and” joins values, the source holds several entries; their conditions need not be identical. Equal entries are not always repeated. Ends that are not written are not given here. * marks the point of attachment. C16 diacid = O=C(O)CCCCCCCCCCCCCCC(=O)*; Stearoyl = CCCCCCCCCCCCCCCCCC(=O)*; Palmitoyl = CCCCCCCCCCCCCCCC(=O)*

T1: human GIP receptor (human, UniProt P48546 22-466)
T1 sequence (looked up): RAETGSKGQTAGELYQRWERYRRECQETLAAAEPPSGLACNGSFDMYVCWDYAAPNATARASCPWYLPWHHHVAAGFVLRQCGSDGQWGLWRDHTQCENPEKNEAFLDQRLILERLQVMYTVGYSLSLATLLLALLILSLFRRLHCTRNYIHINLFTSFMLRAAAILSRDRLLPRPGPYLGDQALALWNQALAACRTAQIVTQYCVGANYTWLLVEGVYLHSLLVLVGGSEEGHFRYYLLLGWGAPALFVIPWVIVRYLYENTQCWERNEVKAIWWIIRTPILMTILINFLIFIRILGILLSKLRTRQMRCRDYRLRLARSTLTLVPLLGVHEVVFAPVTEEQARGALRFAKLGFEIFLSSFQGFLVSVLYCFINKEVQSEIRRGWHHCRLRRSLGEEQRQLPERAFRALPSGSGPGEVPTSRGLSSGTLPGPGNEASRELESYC


What was measured:
human GIP receptor [1] = biological target: T1, human GIP receptor; assay: cell-based or functional assay
human GIP receptor [2] = biological target: T1, human GIP receptor; assay: 125I-hGIP competition binding, COS-7 cells expressing hGIPR;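 also: nonspecific binding taken as radioligand bound by untransfected cells, binding buffer with or without 2% HSA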
Procedure: (§1) After incubation, the cells were washed twice in ice-cold binding buffer (+/−2% HSA) and lysed using 200 mM NaOH with 1% SDS for 30 min. Nonspecific binding was determined as the binding of radioactive ligand to untransfected cells.

human GIP receptor [3] = biological target: T1, human GIP receptor; assay: 125I-hGIP competition binding, COS-7/hGIPR, 0.1% casein;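 also: nonspecific binding defined as radioligand binding measured on untransfected cells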
Procedure: as §1

Binder	cAMP agonism (human GIP receptor [1]) [nM]	cAMP agonism, EC50 (log) (human GIP receptor [1])	cAMP agonism, Emax (human GIP receptor [1])	cAMP antagonism (human GIP receptor [1]) [nM]	cAMP antagonism, log (human GIP receptor [1]) [log M]	IC50 (human GIP receptor [2]) [nM]	log IC50 (human GIP receptor [2])	IC50 (human GIP receptor [3]) [nM]	logIC50 (human GIP receptor [3]) [log M]
TFISDYSIAMDRIK(C16 diacid)QQDFVNWLLAQR-NH2 (N-terminus assumed; SMILES CC[C@H](C)[C@H](NC(=O)[C@H](CO)NC(=O)[C@H](Cc1ccc(O)cc1)NC(=O)[C@H](CC(=O)O)NC(=O)[C@H](CO)NC(=O)[C@@H](NC(=O)[C@H](Cc1ccccc1)NC(=O)[C@@H](N)[C@@H](C)O)[C@@H](C)CC)C(=O)N[C@@H](C)C(=O)N[C@@H](CCSC)C(=O)N[C@@H](CC(=O)O)C(=O)N[C@@H](CCCNC(=N)N)C(=O)N[C@H](C(=O)N[C@@H](CCCCNC(=O)CCCCCCCCCCCCCCC(=O)O)C(=O)N[C@@H](CCC(N)=O)C(=O)N[C@@H](CCC(N)=O)C(=O)N[C@@H](CC(=O)O)C(=O)N[C@@H](Cc1ccccc1)C(=O)N[C@H](C(=O)N[C@@H](CC(N)=O)C(=O)N[C@@H](Cc1c[nH]c2ccccc12)C(=O)N[C@@H](CC(C)C)C(=O)N[C@@H](CC(C)C)C(=O)N[C@@H](C)C(=O)N[C@@H](CCC(N)=O)C(=O)N[C@@H](CCCNC(=N)N)C(N)=O)C(C)C)[C@@H](C)CC) [AT157 [hGIP(5-30)NH2[K16R; H18K; K30R]-C16diacid/18]]	3	-8 log M	12	7	-8.1				
TFISDYSIAMDKIK(Stearoyl)QQDFVNWLLAQK-NH2 (N-terminus assumed; SMILES CCCCCCCCCCCCCCCCCC(=O)NCCCC[C@H](NC(=O)[C@@H](NC(=O)[C@H](CCCCN)NC(=O)[C@H](CC(=O)O)NC(=O)[C@H](CCSC)NC(=O)[C@H](C)NC(=O)[C@@H](NC(=O)[C@H](CO)NC(=O)[C@H](Cc1ccc(O)cc1)NC(=O)[C@H](CC(=O)O)NC(=O)[C@H](CO)NC(=O)[C@@H](NC(=O)[C@H](Cc1ccccc1)NC(=O)[C@@H](N)[C@@H](C)O)[C@@H](C)CC)[C@@H](C)CC)[C@@H](C)CC)C(=O)N[C@@H](CCC(N)=O)C(=O)N[C@@H](CCC(N)=O)C(=O)N[C@@H](CC(=O)O)C(=O)N[C@@H](Cc1ccccc1)C(=O)N[C@H](C(=O)N[C@@H](CC(N)=O)C(=O)N[C@@H](Cc1c[nH]c2ccccc12)C(=O)N[C@@H](CC(C)C)C(=O)N[C@@H](CC(C)C)C(=O)N[C@@H](C)C(=O)N[C@@H](CCC(N)=O)C(=O)N[C@@H](CCCCN)C(N)=O)C(C)C) [AT161 [hGIP(5-30)NH2[H18K]-C18/18]]	1060	-6 log M	7	252	-6.6				
K(C16 diacid)FISDYSIAMDKIHQQDFVNWLLAQK-NH2 (N-terminus assumed; SMILES CC[C@H](C)[C@H](NC(=O)[C@H](CO)NC(=O)[C@H](Cc1ccc(O)cc1)NC(=O)[C@H](CC(=O)O)NC(=O)[C@H](CO)NC(=O)[C@@H](NC(=O)[C@H](Cc1ccccc1)NC(=O)[C@@H](N)CCCCNC(=O)CCCCCCCCCCCCCCC(=O)O)[C@@H](C)CC)C(=O)N[C@@H](C)C(=O)N[C@@H](CCSC)C(=O)N[C@@H](CC(=O)O)C(=O)N[C@@H](CCCCN)C(=O)N[C@H](C(=O)N[C@@H](Cc1c[nH]cn1)C(=O)N[C@@H](CCC(N)=O)C(=O)N[C@@H](CCC(N)=O)C(=O)N[C@@H](CC(=O)O)C(=O)N[C@@H](Cc1ccccc1)C(=O)N[C@H](C(=O)N[C@@H](CC(N)=O)C(=O)N[C@@H](Cc1c[nH]c2ccccc12)C(=O)N[C@@H](CC(C)C)C(=O)N[C@@H](CC(C)C)C(=O)N[C@@H](C)C(=O)N[C@@H](CCC(N)=O)C(=O)N[C@@H](CCCCN)C(N)=O)C(C)C)[C@@H](C)CC) [AT293 [hGIP(5-30)NH2[T5KK]-C16diacid/5]]			0	14	-7.8				
TFISDYSIAMDKIHQQDFVNWLLK(C16 diacid)QK-NH2 (N-terminus assumed; SMILES CC[C@H](C)[C@H](NC(=O)[C@H](CO)NC(=O)[C@H](Cc1ccc(O)cc1)NC(=O)[C@H](CC(=O)O)NC(=O)[C@H](CO)NC(=O)[C@@H](NC(=O)[C@H](Cc1ccccc1)NC(=O)[C@@H](N)[C@@H](C)O)[C@@H](C)CC)C(=O)N[C@@H](C)C(=O)N[C@@H](CCSC)C(=O)N[C@@H](CC(=O)O)C(=O)N[C@@H](CCCCN)C(=O)N[C@H](C(=O)N[C@@H](Cc1c[nH]cn1)C(=O)N[C@@H](CCC(N)=O)C(=O)N[C@@H](CCC(N)=O)C(=O)N[C@@H](CC(=O)O)C(=O)N[C@@H](Cc1ccccc1)C(=O)N[C@H](C(=O)N[C@@H](CC(N)=O)C(=O)N[C@@H](Cc1c[nH]c2ccccc12)C(=O)N[C@@H](CC(C)C)C(=O)N[C@@H](CC(C)C)C(=O)N[C@@H](CCCCNC(=O)CCCCCCCCCCCCCCC(=O)O)C(=O)N[C@@H](CCC(N)=O)C(=O)N[C@@H](CCCCN)C(N)=O)C(C)C)[C@@H](C)CC) [AT188 [hGIP(5-30)NH2[A28K]-C16diacid/28]]	152	-7 log M and -6.8 log M	10	152	-6.8	183	-6.7 log M and -6.74 log M	26300	-4.6
TFISDYSIAMDKIK(C16 diacid)QQDFVNWLLAQK-NH2 (N-terminus assumed; SMILES CC[C@H](C)[C@H](NC(=O)[C@H](CO)NC(=O)[C@H](Cc1ccc(O)cc1)NC(=O)[C@H](CC(=O)O)NC(=O)[C@H](CO)NC(=O)[C@@H](NC(=O)[C@H](Cc1ccccc1)NC(=O)[C@@H](N)[C@@H](C)O)[C@@H](C)CC)C(=O)N[C@@H](C)C(=O)N[C@@H](CCSC)C(=O)N[C@@H](CC(=O)O)C(=O)N[C@@H](CCCCN)C(=O)N[C@H](C(=O)N[C@@H](CCCCNC(=O)CCCCCCCCCCCCCCC(=O)O)C(=O)N[C@@H](CCC(N)=O)C(=O)N[C@@H](CCC(N)=O)C(=O)N[C@@H](CC(=O)O)C(=O)N[C@@H](Cc1ccccc1)C(=O)N[C@H](C(=O)N[C@@H](CC(N)=O)C(=O)N[C@@H](Cc1c[nH]c2ccccc12)C(=O)N[C@@H](CC(C)C)C(=O)N[C@@H](CC(C)C)C(=O)N[C@@H](C)C(=O)N[C@@H](CCC(N)=O)C(=O)N[C@@H](CCCCN)C(N)=O)C(C)C)[C@@H](C)CC) [AT156 [hGIP(5-30)NH2[H18K]-C16diacid/18]]	2	-9 log M	12	12	-7.9				
{C18 fatty acyl}-TFISDYSIAMDKIHQQDFVNWLLAQK-NH2 [AT127 [hGIP(5-30)NH2-C18/5]]						2040	-5.7 log M	1470	-5.8
TFISDYSIAMDK(Palmitoyl)IHQQDFVNWLLAQK-NH2 (N-terminus assumed; SMILES CCCCCCCCCCCCCCCC(=O)NCCCC[C@H](NC(=O)[C@H](CC(=O)O)NC(=O)[C@H](CCSC)NC(=O)[C@H](C)NC(=O)[C@@H](NC(=O)[C@H](CO)NC(=O)[C@H](Cc1ccc(O)cc1)NC(=O)[C@H](CC(=O)O)NC(=O)[C@H](CO)NC(=O)[C@@H](NC(=O)[C@H](Cc1ccccc1)NC(=O)[C@@H](N)[C@@H](C)O)[C@@H](C)CC)[C@@H](C)CC)C(=O)N[C@H](C(=O)N[C@@H](Cc1c[nH]cn1)C(=O)N[C@@H](CCC(N)=O)C(=O)N[C@@H](CCC(N)=O)C(=O)N[C@@H](CC(=O)O)C(=O)N[C@@H](Cc1ccccc1)C(=O)N[C@H](C(=O)N[C@@H](CC(N)=O)C(=O)N[C@@H](Cc1c[nH]c2ccccc12)C(=O)N[C@@H](CC(C)C)C(=O)N[C@@H](CC(C)C)C(=O)N[C@@H](C)C(=O)N[C@@H](CCC(N)=O)C(=O)N[C@@H](CCCCN)C(N)=O)C(C)C)[C@@H](C)CC) [AT125 [hGIP(5-30)NH2-C16/16]]						714	-6.1 log M		
TFISDYSIAMDKIHQQDFVNWLLAQK(Palmitoyl)-NH2 (N-terminus assumed; SMILES CCCCCCCCCCCCCCCC(=O)NCCCC[C@H](NC(=O)[C@H](CCC(N)=O)NC(=O)[C@H](C)NC(=O)[C@H](CC(C)C)NC(=O)[C@H](CC(C)C)NC(=O)[C@H](Cc1c[nH]c2ccccc12)NC(=O)[C@H](CC(N)=O)NC(=O)[C@@H](NC(=O)[C@H](Cc1ccccc1)NC(=O)[C@H](CC(=O)O)NC(=O)[C@H](CCC(N)=O)NC(=O)[C@H](CCC(N)=O)NC(=O)[C@H](Cc1c[nH]cn1)NC(=O)[C@@H](NC(=O)[C@H](CCCCN)NC(=O)[C@H](CC(=O)O)NC(=O)[C@H](CCSC)NC(=O)[C@H](C)NC(=O)[C@@H](NC(=O)[C@H](CO)NC(=O)[C@H](Cc1ccc(O)cc1)NC(=O)[C@H](CC(=O)O)NC(=O)[C@H](CO)NC(=O)[C@@H](NC(=O)[C@H](Cc1ccccc1)NC(=O)[C@@H](N)[C@@H](C)O)[C@@H](C)CC)[C@@H](C)CC)[C@@H](C)CC)C(C)C)C(N)=O) [AT126 [hGIP(5-30)NH2-C16/30]]						7790	-5.1 log M		
TFISDYSIAMDK(C18 fatty acyl)IHQQDFVNWLLAQK-NH2 [AT128 [hGIP(5-30)NH2-C18/16]]						466	-6.3 log M		
